The values below are quoted from earlier work in article PMC10083361.

The target of the data set is TRAF2 (Homo sapiens) (UniProt Q12933).
Chain of TRAF2 (Homo sapiens) (Q12933 2-501): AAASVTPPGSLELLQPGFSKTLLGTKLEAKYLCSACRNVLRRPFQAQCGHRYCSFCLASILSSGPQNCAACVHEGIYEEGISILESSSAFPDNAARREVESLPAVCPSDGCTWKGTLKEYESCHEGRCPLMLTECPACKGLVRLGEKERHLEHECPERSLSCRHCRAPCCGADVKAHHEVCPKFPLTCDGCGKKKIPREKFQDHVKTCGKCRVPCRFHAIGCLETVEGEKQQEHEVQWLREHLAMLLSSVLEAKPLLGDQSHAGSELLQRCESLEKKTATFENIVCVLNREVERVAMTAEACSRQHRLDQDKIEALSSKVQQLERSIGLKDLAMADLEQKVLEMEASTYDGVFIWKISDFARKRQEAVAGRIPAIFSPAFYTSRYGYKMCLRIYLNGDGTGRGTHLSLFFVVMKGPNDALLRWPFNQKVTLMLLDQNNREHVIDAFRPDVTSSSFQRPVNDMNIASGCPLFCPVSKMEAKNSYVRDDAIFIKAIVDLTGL

Chain of 4-1BB (Q07011 24-255): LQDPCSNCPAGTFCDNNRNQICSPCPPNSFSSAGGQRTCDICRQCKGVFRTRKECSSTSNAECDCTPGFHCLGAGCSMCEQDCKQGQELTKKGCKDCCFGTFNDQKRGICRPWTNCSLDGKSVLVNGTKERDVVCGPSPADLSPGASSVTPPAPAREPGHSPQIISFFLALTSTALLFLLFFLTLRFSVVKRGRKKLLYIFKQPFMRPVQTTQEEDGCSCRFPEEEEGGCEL

4-1BB (from UniProt Q07011): the Kd is 1000 µM.
